Test: soluble on expression in E. coli; label from the status in PepcDB or PDB records
For “MAGDPMKQFAQTYYLLQFIICLICLSISCGEGGNDNYSETNDERNKEPEITVSPITNLEAKSTQIANQLLITWQNPNTPNLLGVELSYLQKNGGTHNGKQIIQGAAGKTGNYTLQLPQYGTYEISAIAIDNYGHRSSAVTVIATPAETTVPFSWATLADSCTYVLIEQFMNKSKGTFWSTPKDMSDESTYIYWQQAHAMDVVIYSYKRIKDTNKQLAATYRTYFERWYANHANNYHRNPSDETGFLNDFTDDMCWICLTLIHLSEATGDEKFAQTAKIVYDKYIITRAWTDDKGTGLPWNTTQNDRNACTNSPGCLVAAKLYQRYEDGNYLSDAKKLYEYVVNNSYNADGRVEEPPLTYTQGTFGEACRQLYHITQESKYMDKAKQVINYAATSDRCLRNGILRDEGSSMDQSIFKSVYIPYAVNLALDEASSSIGKHLITFLKNNAETLRMNLNHAAYPAMYCNYWWGEMWKSSEPASMGAQVSGASLMEGIARLEAAALEHHHHHH”, the “soluble on expression in E. coli” value was “not soluble”.
In the case of “MSLKLSNERAEWQAQMKKSVISEERQRLARDLHDAVSQQLFAISMMTSAVLEHVKDADDKTVKRIRMVEHMAGEAQNEMRALLLHLRPVTLEGKGLKEGLTELLDEFRKKQPIDIEWDIQDTAISKGVEDHLFRIVQEALSNVFRHSKASKVTVILGIKNSQLRLKVIDNGKGFKMDQVKASSYGLNSMKERASEIGGVAEVISVEGKGTQIEVKVPIFPEEKGENERDSSIIDEGHHHHHH”, the “soluble on expression in E. coli” value is reported as “soluble”.
For “MENLKNIQPREDFNWEEFEAGGVHAAVSRQEQEAAYDKTLNTIKEKEVVMGRVTAINKREVVINVGYKSEGVVPATEFRYNPELKVGDEVEVYIENQEDKKGQLVLSHRKARAARSWERVNEALEKDEIVKGYVKCRTKGGMIVDVFGIEAFLPGSQIDVRPIRDYDAFVEKTMEFKIVKINQEYKNVVVSHKVLIEAELEQQKKEII”, the “soluble on expression in E. coli” value was “not soluble”.
In the case of “MSLKTYALVMAGGRGERLWPLSREDRPKPFLPLFEGKTLLEATLERLAPLVPPERTLLAVRRDQEAVARPYADGIRLLLEPLGRDTAGAVLLGVAEALKEGAERLLVLPADHYVGDDEAYREALATMLEAAEEGFVVALGLRPTRPETEYGYIRLGPREGAWYRGEGFVEKPSYAEALEYIRKGYVWNGGVFAFAPATMAELFRRHLPSHHEALERLLAGASLEEVYAGLPKISIDYGVMEKAERVRVVLGRFPWDDVGNWRALERVFSQDPHENVVLGEGRHVALDTFGCVVYADRGVVATLGVSGLVVAKVGDEVLVVPKDWAREVREVVKRLEAQEEGHHHHHH”, the “soluble on expression in E. coli” value is reported as “soluble”.
For “MGSDKIHHHHHHMKVQRIQAIENLIHEKGSASLDDLCKQFNVSKNTIRRDIAKLLQKNTIKKVYGGVVSIYNNPEEIRPFENRDTENHAEKQLIGKAAADFIEENDLIFIDSGTTTSCLAAALPTDKEITIITNSLDVINFASEMDNVKLIVIGSTFKTSTKSFVGVENWGFFEKYNITKAFMAATALSTTHGVMNSDILEYEIKRHMMEKAREKFLLVDHTKVDKSALLTYGELAEFDWLVTSKEMAGGCLGYCADVGVLVRLV”, the “soluble on expression in E. coli” value was “not soluble”.
For “MGSDKIHHHHHHMSQPLLSLPIDVLNIISKAMPTTLFQQLATQCTEVSFLNTGISNVNIKLSCEDGDKVLRVNQPHSNWCDRSLEVECWQAAIVANIAPVLIWVSDDKQVYLSEFIHQPETDWSIFASMRSHLSLGQSTNQSISAVDAVPLLSALFCKLSTLPVPNKSITVTEQWQQYAYQLDSLTESQIDPQWHDAWQQLLRLNGLVRHWLSQLEACVLLPTFCHRDLTPHNLLLSGRAPHQLFCIDYEYAVASHPLFDLASVVASHKLSTIQVNQLIDNVIMQYCQAASLTDVAAAKAALPAAINCFWLFSAMWALLMAAKEPQKVTQYLQYFTYYLTLITC”, the “soluble on expression in E. coli” value was “not soluble”.
With “MGSDKIHHHHHHMEIVLAKRAGFCFGVKRATQMAFEAAEKEGETFTLGPIIHSPQVVQRLEGMGVKVLSDLEGIGNGTVIIRSHGVTSAELEDAVRRQLEVVDATCPFVKKAQEHVKRLSHDGYTVVVVGDADHPEVQGIVSYAEGPVHVVGSGEEAARLPNMKKVGVVAQTTQSFETLKNVVKECLLKGGEIRVFNTICDATAVRQDEAKALAREVDCMIVIGGFNSANTKRLAEVCSELQPRTYHIETAQELDASWFQGVERVGVTAGASTPKWLIDEVIERIQEFDNKKKG” the “soluble on expression in E. coli” value was “not soluble”.
With “MLSYHTDIPTDLPLLRQAVEAIRREESGGAVPDSDRPRVIYEARNRLYAIRTAQGEQVVKSFRIPIAIQRVVYSFFRPSKAARSYRNAIRLGRCGIGTPRPSGYAIEREKGLLCRSYYVCESMHDCRDIRLSMQGVEGGEALLRALAGFIARMHRAGIHHIDLSPGNVLYRTDEKGEYSFYLIDLNRMKFYDKPIVGRKAYANFARLSFCPAVSKQLAEYYAEAQGLNTDGVVQGVQSESDRFFRSKVRKYARKALVREQKRMSRSAFRRAYIRYRSVRLIRKLTGCTRLFRIENDLYTSYLEVGDLRHTLKRAEGYSSPKNVQ” the “soluble on expression in E. coli” value was “not soluble”.
In the case of “MGSDKIHHHHHHMVKELDLQSVQGTMLIPLWGRAYGSEKNKNILDDTEAIRIIKEFDFDFSTIENTFGEYGCITYITRARKIDDTIKQFITKHPNATIVNIGSGLDTTFSRIDNGTIHWYNLDLPDAISFRKTLIEDTSRNTSIAKSFFDTSWFDDIKYDPNDGILFISAGVFYYFKEEDLKKIVVAMSKRFPGGELYFDAESKFALNLSNATVKKSGNNGALMYFYINNPKTLEKWSPNIKVLSCSPFFKNIPTNKGWDGSTRIMIRIVNLIKMLKFVHLRFEK”, the “soluble on expression in E. coli” value is reported as “not soluble”.
In the case of “MRPMPTDDINSRIAELEADNRRLRQLLDKRDAPGELRHRLRSTVAMLRTIIRKSASKRHSLDTYVGHLEDRLDALMRAQAIADEQGAIDFHKLLADELLHYQARDGERVTFAGPDLHLQARAGQVLALAVHELAVNAVEHGALGGDGTIDIRWSVAGAGPAPLLTFVWKETDTAPVAEPSHHGFGTEVLTRTLEYELKAKTDLAFEPDGLRCTIRFPLSERVDGSQAG”, the “soluble on expression in E. coli” value is reported as “not soluble”.
In the case of “MGSDKIHHHHHHMSLYLDDTLSRIVELDLKDTRIVPFLAGEPGIGKTSFIYGIGERAGYKVFSISVNTLADKGDLTGARTLQDPADGKWKQMFFPHATFVEANDYALANPNETVVILLDEINRTDSDVTSASMTISTERRVGTTDLAPNVRLAVTGNLTGNVTHLDSASLTRFSLYEVKPSAETFMNIMGGRLNKYIRTVLTKYPEYIFMKPTTATALITTGDDDDDHTTNAKQMMDFNAVLGSDQDMVQFTAPRTIEGLSVWLNNADDDFLRLLLQEKVDGLARSMSLLQATLESHTGDTAFTAEVLSEMTNDLLSSASQAPSGPIKPFVYDRLAAAPSNTVLEQEVHTLSLNDRADVLLFALHDTVNNAAPSIIAHLASEGVLDELPKDRISKIVSLGPVPTANYHALTRQDTTLTRNLGPAVLGFLES”, the “soluble on expression in E. coli” value is reported as “not soluble”.
In the case of “MRPLSLKGHERALTRVRFNREGDLTFSCAKDKKPCVWYTENGERIGSYDGHNGAVWDIDVSWDTTKCVTASGDLTVKIWDAELGNCLYTINHQTPMKSCGFSYSGNLVCFTTQKMTKNLSTFQVRDLRDSSQMVEGGESFFYSQFDVNATTALFTQMDDLVTIGFESGLLQQYDLRNPDTPIHTNESVHRYSVQDLQLSPRGDFLISASRDKTAALLDVNDLKKLKQYKSERPVNSACISPNRDHICLGGGEDAMQVTQTSVSAGHFEAKIYHMVFEEEFARFKGHFGPINTMAWHPSGTIIATGGEDGYIRIQEFDEDYLGFTYDF”, the “soluble on expression in E. coli” value is reported as “not soluble”.
In the case of “SSDVTFLVEGRPFYAHKVLLFTASPRFKALLSSKPTNDNTCIEIGYVKYPIFQLVMQYLYYGGPESLLIKNNEIMELLSAAKFFQLEALQRHCEIICAKSINTDNCVDIYSHAKFLGVTELSAYCEGYFLKNMMVLIENEAFKQLLYDKNGEGAGQDVLQDLQRTLAIRIQSIHLSSSKGSVV”, the “soluble on expression in E. coli” value is reported as “soluble”.
In the case of “MAHHHHHHMKDKLRAMGHPAMDAADREDSHAGCFSDSVGMQTYSLNTSLGAMHIMSRLNNEMSFVEDTASGSFGVVKKGVLDLDRQCYAVKQTKRVISGEGDLQQRLQEVYTLSACSHPNVLRYFDGWVEDRAVFVRTEWLSDGSVADFDRPFSEALLRSVIHQIASALHWLLCHHITHRDVKPENILARKMEDGTYTFKLADFGLARPLFRDRPNTGEEFRGTNDDDGDRRYLSPEAFAISEFSQQKGEADVYALGASCVELMGGDPSLVRNGCYTGNFHIYSAELQNLVQWMTRLDPQERPDAFMVALLTVDPALKSTRGFARRMAAIEGLRASVAELEKKVAETNATEKEEGGA”, the “soluble on expression in E. coli” value is reported as “soluble”.
With “GSHMSRLLEDFRNQRYPNLQLRDLANHIVEFSQDQHGSRFIQQKLERATAAEKQMVFSEILAAAYSLMTDVFGNYVIQKFFEFGTPEQKNTLGMQVKGHVLQLALQMYGCRVIQKALESISPEQQQEIVHELDGHVLKCVKDQNGNHVVQKCIECVDPVALQFIINAFKGQVYSLSTHPYGCRVIQRILEHCTAEQTTPILDELHEHTEQLIQDQYGNYVIQHVLEHGKQEDKSILINSVRGKVLVLSQHKFASNVVEKCVTHATRGERTGLIDEVCTFNDNALHVMMKDQYANYVVQKMIDVSEPTQLKKLMTKIRKNMAAL” the “soluble on expression in E. coli” value was “soluble”.
In the case of “EVASYCDRVVAAVSSWMSTVKSTTEVSWNKLSFCDVLLKIITFGIYSPHETLAEKYSEKKLMDSFSPSLSQDKMDGEFAHANIDGISIRLCLNKGICSVFYLDGDKIQSTQLSSKEYNNLLSSLPPKQFNLGKVHTITAPVSGNFKTHKPAPEVIETAINCCTSIIPNDDYFPVKDTDFNSVWHDIYRDIRASDSNSTKIYFNNIEIPLKLIADLINELGINEFIDSKKELQMLSYNQLNKIINSNFPQQDLCFQTEKLLFTSLFQDPAFISALTSAFWQSLHITSSSVEHIYAQIMSENIENRLNFMPEQRVINNCGHIIKINAVVPKNDTAISASGGRAYEVSSSILPSHITCNGVGINKIETSYLVHAGTLPSSEGLRNAIPPESRQVSFAIISPDV”, the “soluble on expression in E. coli” value is reported as “soluble”.
For “MGSDKIHHHHHHMTFEKNEHKDIAVIGAGPVGMLAALNLAHKGYSVCLIGPPVDTDELRTTALMMPAIHMLQKLNIWNIVKSHAAALSFIRIIDITSRIIRAPTVNFSSAEIGEEAFGYNIPNVELNNALVASVAHTPNIKRFFSSAHFFHHQPNHIHVTLADGGVVQASLIVAADGRDSRTREAADISVKKWNYPQTALVLNFSHDLSHQNTSTEFHTESGPFTQVPLPGHRSSLVWVVNPSRAEELLRLESKVIAKVIEEQMQSMLGKLTLETPIQAWPLSGLISQRFAANRTILVGEAAHVFPPIGAQGLNLGFRDIQTLIDILPNKISDFNSKKIVAHYNKCRKPDILIRSGSVHMFNSALLSNMLPVHIIRSFGLGLLRNCSPLRNLFTREGIYPGYGFKKIMQTFPIKSHKQESSIFFSVLVKDRDSEMISKSSLF”, the “soluble on expression in E. coli” value was “not soluble”.
In the case of “MGSDKIHHHHHHMSDQTRQPNSSSGLSQLLTGRLRSKLAAGVTHLTSGSGPTLDYSSPPGDPGLFGPDSVCWKVHADFTSMMTGGISALLLQALHPLALAGVWDHSAFRTDILGRLRRTATFIAGTTYGNRHDALALVERVKRIHLGVSGVAPDGRPYRASEPALLTWVHVAEVSSFMTAHLRYVNPLLPVAAQDQYFAETARIAEMLGASDIPRSRAGIDAYLLAMQPELVASERTRELVRILMNAPAPSASMRPAGVLMLNAGVDLLPDWAQAMLGFQRYAALRRAVTRPGVRLVAPVIRWALVNGVSKRARRRVAAGVREPE”, the “soluble on expression in E. coli” value is reported as “not soluble”.
For “MGHHHHHHSHMGHLDKEGLCTQGSSFSWLLRVLNDGISLGLTPCLWDMYLLEGEQMLMLITSIAFKVQRSLYEETNKETWGPATPRALKGTGRARPICESLHSSLQALTASESSRGPSLLQTPPRVPGQQALSRGDKGISVSLSLPSLPSRRGRCGRIIG”, the “soluble on expression in E. coli” value was “not soluble”.
With “MGEISLGEVFHLKSGKYLKADERFEDGKFPYYGAGIESTSFVNEPNTKGDTLSMIANGYSIGNIRYHTIPWFNGTGGIAMEALKPNKTYVPFFYCALKYMQKDLKERFKRDESPFISLKLAGEIKVPFVKSFALQRKAGKIIYLLDK” the “soluble on expression in E. coli” value was “not soluble”.
